Experimental data: PMC9482650, “Quantitative fragmentomics allow affinity mapping of interactomes” (Nature Communications, 2022)

T1: PDZD2_6, O15018
T1 sequence (O15018 2745-2839, limits assumed, looked up): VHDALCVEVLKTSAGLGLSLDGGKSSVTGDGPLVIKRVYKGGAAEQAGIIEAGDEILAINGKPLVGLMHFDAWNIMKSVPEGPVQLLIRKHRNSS

T2: SYNPO2L, Q9H987
T2 sequence (Q9H987 1-98, limits assumed, looked up): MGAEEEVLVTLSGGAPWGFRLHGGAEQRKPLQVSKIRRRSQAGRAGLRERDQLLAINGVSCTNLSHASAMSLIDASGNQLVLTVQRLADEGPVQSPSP

T3: SIPA1L3, O60292
T3 sequence (O60292 961-1052, limits assumed, looked up): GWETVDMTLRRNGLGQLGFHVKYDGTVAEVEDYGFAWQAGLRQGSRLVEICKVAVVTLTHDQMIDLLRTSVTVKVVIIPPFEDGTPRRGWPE

T4: PDZD7_2, Q9H5P4
T4 sequence (Q9H5P4 205-303, limits assumed, looked up): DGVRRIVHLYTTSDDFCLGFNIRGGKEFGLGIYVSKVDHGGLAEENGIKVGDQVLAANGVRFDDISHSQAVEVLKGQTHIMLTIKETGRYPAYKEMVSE

T5: PTPN4, P29074
T5 sequence (P29074 512-599, limits assumed, looked up): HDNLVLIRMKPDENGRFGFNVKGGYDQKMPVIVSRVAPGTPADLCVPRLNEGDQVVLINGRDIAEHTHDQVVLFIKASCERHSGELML

T6: RGS12, O14924
T6 sequence (O14924 17-108, limits assumed, looked up): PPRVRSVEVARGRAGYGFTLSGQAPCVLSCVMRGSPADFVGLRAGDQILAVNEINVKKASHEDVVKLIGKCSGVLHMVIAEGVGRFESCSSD

T7: MPDZ_3, O75970
T7 sequence (O75970 372-473, limits assumed, looked up): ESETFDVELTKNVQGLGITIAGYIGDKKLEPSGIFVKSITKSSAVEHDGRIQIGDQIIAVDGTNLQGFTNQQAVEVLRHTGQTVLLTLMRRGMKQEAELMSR

T8: MPP1, Q00013
T8 sequence (Q00013 66-162, limits assumed, looked up): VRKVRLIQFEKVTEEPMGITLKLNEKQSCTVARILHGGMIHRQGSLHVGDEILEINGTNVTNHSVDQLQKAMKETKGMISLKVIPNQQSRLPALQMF

T9: MPDZ_11, O75970
T9 sequence (O75970 1720-1817, limits assumed, looked up): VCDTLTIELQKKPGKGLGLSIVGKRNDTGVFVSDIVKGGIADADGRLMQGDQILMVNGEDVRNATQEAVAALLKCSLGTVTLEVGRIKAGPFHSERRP

T10: SHROOM3, Q8TF72
T10 sequence (Q8TF72 20-120, limits assumed, looked up): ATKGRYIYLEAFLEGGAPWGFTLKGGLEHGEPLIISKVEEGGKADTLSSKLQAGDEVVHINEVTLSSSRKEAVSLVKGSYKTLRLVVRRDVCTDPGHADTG

T11: TJP3_2, O95049
T11 sequence (O95049 190-282, limits assumed, looked up): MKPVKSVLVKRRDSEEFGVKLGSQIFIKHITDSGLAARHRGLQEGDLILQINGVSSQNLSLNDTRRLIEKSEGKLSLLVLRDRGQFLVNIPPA

T12: USH1C_2, Q9Y6N9
T12 sequence (Q9Y6N9 206-303, limits assumed, looked up): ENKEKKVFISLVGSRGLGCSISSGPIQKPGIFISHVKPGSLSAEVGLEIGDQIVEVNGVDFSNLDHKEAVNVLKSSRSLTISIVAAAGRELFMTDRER


Legend:
Experiment in all cases: holdup assay
Design in all cases: key: below the threshold = too weak to quantify, mostly under pKd 3.1 to 4
Conditions in all cases: plain residues with an end cap or a label only (N-terminal biotin on a linker: ttds)
[1] = molecular target: T1, PDZD2_6, O15018
[2] = molecular target: NHERF2_1, Q15599
Sequence of NHERF2_1, Q15599 (Q15599 9-91): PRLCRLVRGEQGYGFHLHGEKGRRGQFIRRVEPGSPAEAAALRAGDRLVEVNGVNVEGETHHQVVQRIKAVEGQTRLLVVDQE

[3] = molecular target: DVL2, O14641
Sequence of DVL2, O14641 (O14641 260-359): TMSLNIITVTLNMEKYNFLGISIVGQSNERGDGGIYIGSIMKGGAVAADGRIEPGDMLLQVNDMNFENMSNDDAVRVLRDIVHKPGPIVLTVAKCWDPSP

[4] = molecular target: T2, SYNPO2L, Q9H987
[5] = molecular target: T3, SIPA1L3, O60292
[6] = molecular target: T4, PDZD7_2, Q9H5P4
[7] = molecular target: PDZRN4_2, Q6ZMN7
Sequence of PDZRN4_2, Q6ZMN7 (Q6ZMN7 389-498): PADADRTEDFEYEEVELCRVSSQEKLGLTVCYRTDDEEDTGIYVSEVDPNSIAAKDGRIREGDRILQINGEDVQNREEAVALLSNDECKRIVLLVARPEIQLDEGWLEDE

[8] = molecular target: MAST3, O60307
Sequence of MAST3, O60307 (O60307 945-1048): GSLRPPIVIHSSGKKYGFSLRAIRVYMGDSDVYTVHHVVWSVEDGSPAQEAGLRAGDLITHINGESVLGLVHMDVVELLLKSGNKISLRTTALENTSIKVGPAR

[9] = molecular target: T5, PTPN4, P29074
[10] = molecular target: RIMS2, Q9UQ26
Sequence of RIMS2, Q9UQ26 (Q9UQ26 637-758): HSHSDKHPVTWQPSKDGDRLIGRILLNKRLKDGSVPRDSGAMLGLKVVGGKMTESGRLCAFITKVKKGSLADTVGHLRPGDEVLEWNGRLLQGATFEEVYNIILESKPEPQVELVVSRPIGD

[11] = molecular target: T6, RGS12, O14924
[12] = molecular target: T7, MPDZ_3, O75970
[13] = molecular target: NHERF4_3, Q86UT5
Sequence of NHERF4_3, Q86UT5 (Q86UT5 325-412): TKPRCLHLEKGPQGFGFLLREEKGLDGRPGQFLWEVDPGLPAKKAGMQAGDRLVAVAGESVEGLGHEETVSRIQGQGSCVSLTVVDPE

[14] = molecular target: T8, MPP1, Q00013
[15] = molecular target: MAGI3_4, Q5TCQ9
Sequence of MAGI3_4, Q5TCQ9 (Q5TCQ9 716-815): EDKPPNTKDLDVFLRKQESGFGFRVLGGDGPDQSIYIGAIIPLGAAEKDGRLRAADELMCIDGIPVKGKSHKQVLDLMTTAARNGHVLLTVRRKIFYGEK

[16] = molecular target: RIMS1, Q86UR5
Sequence of RIMS1, Q86UR5 (Q86UR5 584-692): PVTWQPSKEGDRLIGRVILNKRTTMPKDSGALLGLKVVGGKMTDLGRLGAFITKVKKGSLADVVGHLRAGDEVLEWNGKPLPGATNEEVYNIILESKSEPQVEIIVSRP

[17] = molecular target: PARD3B_2, Q8TEW8
Sequence of PARD3B_2, Q8TEW8 (Q8TEW8 376-471): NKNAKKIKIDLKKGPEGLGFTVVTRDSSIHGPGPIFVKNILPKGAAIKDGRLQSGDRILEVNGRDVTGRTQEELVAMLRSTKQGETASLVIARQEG

[18] = molecular target: PDZD9, Q8IXQ8
Sequence of PDZD9, Q8IXQ8 (Q8IXQ8 23-120): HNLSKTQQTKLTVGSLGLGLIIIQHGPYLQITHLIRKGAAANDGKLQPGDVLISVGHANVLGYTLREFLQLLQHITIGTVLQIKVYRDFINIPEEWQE

[19] = molecular target: IL16_2, Q14005
Sequence of IL16_2, Q14005 (Q14005 350-450): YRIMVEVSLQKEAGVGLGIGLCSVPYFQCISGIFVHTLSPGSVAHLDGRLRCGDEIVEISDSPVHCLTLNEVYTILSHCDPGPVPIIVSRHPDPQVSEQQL

[20] = molecular target: T9, MPDZ_11, O75970
[21] = molecular target: MAGIX, Q9H6Y5
Sequence of MAGIX, Q9H6Y5 (Q9H6Y5 118-211): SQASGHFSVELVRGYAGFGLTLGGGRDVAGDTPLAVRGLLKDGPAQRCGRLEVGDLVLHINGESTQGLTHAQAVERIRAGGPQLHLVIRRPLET

[22] = molecular target: T10, SHROOM3, Q8TF72
[23] = molecular target: T11, TJP3_2, O95049
[24] = molecular target: T12, USH1C_2, Q9Y6N9
[25] = molecular target: GIPC3, Q8TF64
Sequence of GIPC3, Q8TF64 (Q8TF64 107-202): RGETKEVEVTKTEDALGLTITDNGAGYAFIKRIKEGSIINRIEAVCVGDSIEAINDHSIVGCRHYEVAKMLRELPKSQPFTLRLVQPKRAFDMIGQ

| Binder | pKd [1] | pKd [2] | pKd [4] | pKd [5] | pKd [6] | pKd [7] | pKd [8] | pKd [9] | pKd [10] | pKd [11] | pKd [12] | pKd [13] | pKd [14] | pKd [15] | pKd [16] | pKd [17] | pKd [18] | pKd [19] | pKd [20] | pKd [21] | also measured |
| --- | --- | --- | --- | --- | --- | --- | --- | --- | --- | --- | --- | --- | --- | --- | --- | --- | --- | --- | --- | --- | --- |
| SKPTRRETEV [HPV35-E6, P27228] | below the threshold | 3.77 | below the threshold | below the threshold | below the threshold | below the threshold | below the threshold | 4.03 | below the threshold | below the threshold | below the threshold | 3.78 | below the threshold | 3.76 | below the threshold | below the threshold | below the threshold | 3.57 | below the threshold | 3.56 | pKd [3]: below the threshold; pKd [22]: below the threshold |
| QRQARSETLV [HPV59-E6, Q81964] | below the threshold | below the threshold | below the threshold | below the threshold | below the threshold | below the threshold | below the threshold | below the threshold | below the threshold | below the threshold | below the threshold | 4.28 | 6.03 | below the threshold | below the threshold | below the threshold | below the threshold | below the threshold | below the threshold | below the threshold | pKd [3]: below the threshold; pKd [23]: below the threshold; pKd [24]: below the threshold; pKd [25]: below the threshold; pKd [22]: below the threshold |
| RHTTSTETAV [HPV30-E6, P36809] | below the threshold | below the threshold | below the threshold | below the threshold | below the threshold | 4.48 | below the threshold | 4.72 | below the threshold | below the threshold | below the threshold | below the threshold | 5.17 | below the threshold | below the threshold | below the threshold | below the threshold | below the threshold | below the threshold | 5.35 | pKd [3]: below the threshold; pKd [23]: below the threshold; pKd [24]: below the threshold; pKd [25]: below the threshold; pKd [22]: below the threshold |
| SSLQSLETSV [ATP2B4, P23634] | below the threshold | below the threshold | below the threshold | below the threshold | below the threshold | 4.24 | below the threshold | 4.88 | below the threshold | below the threshold | below the threshold | below the threshold | 4.23 | below the threshold | below the threshold | below the threshold | below the threshold | below the threshold | below the threshold | below the threshold | pKd [23]: below the threshold; pKd [24]: below the threshold; pKd [25]: below the threshold; pKd [22]: below the threshold |
| RLQRRRETQV [HPV18-E6, P06463] | below the threshold | below the threshold | below the threshold | below the threshold | below the threshold | below the threshold | below the threshold | 4.62 | below the threshold | 4.35 | below the threshold | below the threshold | below the threshold | below the threshold | below the threshold | below the threshold | below the threshold | below the threshold | below the threshold | below the threshold | pKd [3]: below the threshold; pKd [23]: below the threshold; pKd [24]: below the threshold; pKd [25]: below the threshold; pKd [22]: below the threshold |
| RLPKIKETTV [FRMPD4, Q14CM0] | below the threshold | below the threshold | below the threshold | below the threshold | below the threshold | 4.43 | below the threshold | 5.14 | below the threshold | 4.61 | below the threshold | below the threshold | 5.3 | below the threshold | below the threshold | below the threshold | below the threshold | below the threshold | below the threshold | below the threshold | pKd [3]: below the threshold; pKd [23]: below the threshold; pKd [24]: below the threshold; pKd [25]: below the threshold; pKd [22]: below the threshold |
